Source: patent US20260167721A1 (ABLEXIS, published 2026)
Changes are numbered by the printed parent chain.

B1: CD3 × CD33-BspAb99 (bispecific antibody)
scFv-Fc: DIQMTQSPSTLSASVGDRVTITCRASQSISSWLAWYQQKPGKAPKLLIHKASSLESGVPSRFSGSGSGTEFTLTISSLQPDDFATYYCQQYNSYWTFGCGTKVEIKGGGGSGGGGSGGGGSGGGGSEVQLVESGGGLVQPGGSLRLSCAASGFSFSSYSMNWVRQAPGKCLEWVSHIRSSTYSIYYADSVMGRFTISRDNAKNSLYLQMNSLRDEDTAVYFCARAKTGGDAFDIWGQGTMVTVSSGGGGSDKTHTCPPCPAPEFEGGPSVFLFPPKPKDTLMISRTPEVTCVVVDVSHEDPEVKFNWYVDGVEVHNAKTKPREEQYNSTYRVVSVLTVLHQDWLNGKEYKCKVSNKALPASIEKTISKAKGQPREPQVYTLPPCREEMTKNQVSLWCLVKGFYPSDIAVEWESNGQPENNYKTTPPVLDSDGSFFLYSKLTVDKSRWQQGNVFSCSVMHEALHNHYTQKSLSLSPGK
heavy: EVQLVQSGAEVKKPGSSVKVSCKASGYTITDSNIHWVRQAPGQSLEWIGYIYPYNGGTDYNQKFKNRATLTVDNPTNTAYMELSSLRSEDTAFYYCVNGNPWLAYWGQGTLVTVSSASTKGPSVFPLAPSSKSTSGGTAALGCLVKDYFPEPVTVSWNSGALTSGVHTFPAVLQSSGLYSLSSVVTVPSSSLGTQTYICNVNHKPSNTKVDKRVEPKSCDKTHTCPPCPAPEFEGGPSVFLFPPKPKDTLMISRTPEVTCVVVDVSHEDPEVKFNWYVDGVEVHNAKTKPREEQYNSTYRVVSVLTVLHQDWLNGKEYKCKVSNKALPASIEKTISKAKGQPREPQVCTLPPSREEMTKNQVSLSCAVKGFYPSDIAVEWESNGQPENNYKTTPPVLDSDGSFFLVSKLTVDKSRWQQGNVFSCSVMHEALHNRFTQKSLSLSPGK
light: DIQLTQSPSTLSASVGDRVTITCRASESLDNYGIRFLTWFQQKPGKAPKLLMYAASNQGSGVPSRFSGSGSGTEFTLTISSLQPDDFATYYCQQTKEVPWSFGQGTKVEVKRTVAAPSVFIFPPSDEQLKSGTASVVCLLNNFYPREAKVQWKVDNALQSGNSQESVTEQDSKDSTYSLSSTLTLSKADYEKHKVYACEVTHQGLSSPVTKSFNRGEC
notes: KiH heterodimer
B2: CD3 × CD33-BspAb104 (bispecific antibody)
scFv-Fc: QSALTQPASVSGSPGQSITISCTGTSSDVGSYNLVSWYQQHPGKAPKLMIYEDIRRPSGVSNRFSASKSGDTASLTISGLQAEDEADYYCSSYAGSTTFAIFGCGTKLTVLGGGGSGGGGSGGGGSGGGGSEVQLVQSGAEVKKPGESLKISCKGSEYSFTTYWIAWVRQMPGKCLEWMGIIYPGDSDTTYSPSFQGQVTISADKSISIAFLQWSSLKASDTAMYYCARQGELDAFDIWGQGTMVTVSSGGGGSDKTHTCPPCPAPEFEGGPSVFLFPPKPKDTLMISRTPEVTCVVVDVSHEDPEVKFNWYVDGVEVHNAKTKPREEQYNSTYRVVSVLTVLHQDWLNGKEYKCKVSNKALPASIEKTISKAKGQPREPQVYTLPPCREEMTKNQVSLWCLVKGFYPSDIAVEWESNGQPENNYKTTPPVLDSDGSFFLYSKLTVDKSRWQQGNVFSCSVMHEALHNHYTQKSLSLSPGK
heavy: B1 heavy
light: B1 light
notes: KiH heterodimer
B3: CD3 × CD33-BspAb115 (bispecific antibody)
scFv-Fc: NFMLTQPHSVSESPGKTVTISCTRTSGSIASNYVQWYQQRPGSSPTTVIYEDNQRPSGVPDRFSGSIDSSSNSASLTISGLKTEDEAAYYCQSYDRSNRVFGCGTKLTVLGGGGSGGGGSGGGGSGGGGSQVQLQESGPGLVKPSETLSLTCTVSGGSISSYYWSWIRQPAGKCLEWIGRIYTSGSTKYNPSLKSRVTMSVDTSKNQFSLKLISVTAADTAVYFCARERIRDLYFDYWGQGTLVTVSSGGGGSDKTHTCPPCPAPEFEGGPSVFLFPPKPKDTLMISRTPEVTCVVVDVSHEDPEVKFNWYVDGVEVHNAKTKPREEQYNSTYRVVSVLTVLHQDWLNGKEYKCKVSNKALPASIEKTISKAKGQPREPQVYTLPPCREEMTKNQVSLWCLVKGFYPSDIAVEWESNGQPENNYKTTPPVLDSDGSFFLYSKLTVDKSRWQQGNVFSCSVMHEALHNHYTQKSLSLSPGK
heavy: B1 heavy
light: B1 light
notes: KiH heterodimer
B4: CD3 × CD33-BspAb113 (bispecific antibody)
scFv-Fc: NFMLTQPHSVSESPGKTVTISCTRSSGSIASNYVQWYQQRPGSSPTTVIYEDNQRPSGVPDRFSGSIDSSSNSASLTISGLKTEDEADYYCQSYDSSNRVFGCGTKLTVLGGGGSGGGGSGGGGSGGGGSEVQLVESGGGLVKFGGSLRLSCAASGFTFSRYSMNWVRQAPGKCLEWVSSISSSSSYKYYADSVKGRFTISRDNAKNSLYLQMNSLRAEDTAVYYCAREGGNSHGMDVWGQGTTVTVSSGGGGSDKTHTCPPCPAPEFEGGPSVFLFPPKPKDTLMISRTPEVTCVVVDVSHEDPEVKFNWYVDGVEVHNAKTKPREEQYNSTYRVVSVLTVLHQDWLNGKEYKCKVSNKALPASIEKTISKAKGQPREPQVYTLPPCREEMTKNQVSLWCLVKGFYPSDIAVEWESNGQPENNYKTTPPVLDSDGSFFLYSKLTVDKSRWQQGNVFSCSVMHEALHNHYTQKSLSLSPGK
heavy: B1 heavy
light: B1 light
notes: KiH heterodimer
B5: CD3 × CD33-BspAb100 (bispecific antibody)
scFv-Fc: EVQLVESGGGLVKPGGSLRLSCAASGFTFSNYYMNWVRQAPGKCLERVSSISSSSNYIYYADSVKGRFTISRDNAKNSLYLQMNSLRAEDTAVYYCARDRRELPLDYWGQGTVVTVSSGGGGSGGGGSGGGGSGGGGSSYELTQPPSVSVSPGQTARITCSGDALPKKYAYWYQQKSGQAPVLVIYEDSKRPSGIPERFSGSSSGTMATLTISGAQVEDEADYYCYSTDSSGNHWVFGCGTKLTVLGGGGSDKTHTCPPCPAPEFEGGPSVFLFPPKPKDTLMISRTPEVTCVVVDVSHEDPEVKFNWYVDGVEVHNAKTKPREEQYNSTYRVVSVLTVLHQDWLNGKEYKCKVSNKALPASIEKTISKAKGQPREPQVYTLPPCREEMTKNQVSLWCLVKGFYPSDIAVEWESNGQPENNYKTTPPVLDSDGSFFLYSKLTVDKSRWQQGNVFSCSVMHEALHNHYTQKSLSLSPGK
heavy: B1 heavy
light: B1 light
notes: KiH heterodimer
B6: CD3 × CD33-BspAb101 (bispecific antibody)
scFv-Fc: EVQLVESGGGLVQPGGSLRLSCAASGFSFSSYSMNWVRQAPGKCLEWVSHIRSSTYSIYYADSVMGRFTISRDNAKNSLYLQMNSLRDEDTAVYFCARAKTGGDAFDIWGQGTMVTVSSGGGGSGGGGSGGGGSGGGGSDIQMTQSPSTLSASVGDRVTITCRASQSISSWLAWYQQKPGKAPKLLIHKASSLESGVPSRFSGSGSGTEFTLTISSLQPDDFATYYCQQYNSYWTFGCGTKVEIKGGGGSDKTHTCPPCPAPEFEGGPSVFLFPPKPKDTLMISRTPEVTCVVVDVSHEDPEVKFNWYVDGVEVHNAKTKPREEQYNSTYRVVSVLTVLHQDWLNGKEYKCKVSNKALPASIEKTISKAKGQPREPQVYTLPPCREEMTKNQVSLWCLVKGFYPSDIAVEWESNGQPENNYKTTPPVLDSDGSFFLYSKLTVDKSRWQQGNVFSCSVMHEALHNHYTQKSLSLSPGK
heavy: B1 heavy
light: B1 light
notes: KiH heterodimer
B7: CD3 × CD33-BspAb119 (bispecific antibody)
scFv-Fc: B4 scFv-Fc with L134V, V135A, F144P, S185G, K188T, A227V, G230R, N232K, S233G, H234A
heavy: B1 heavy
light: B1 light
notes: KiH heterodimer

Biological target: T1, human CD3 (TCR/CD3 complex on the cell surface) (human, UniProt P07766 23-207; P04234 22-171; P09693 23-182)
T1 construct: whole, on cells; Native CD3 on human Pan-T cells or Jurkat wild-type cells; also called CD3 on Pan-T cells; CD3 on Jurkat WT cells
T1 sequence (P07766 23-207, chain 1 of 3): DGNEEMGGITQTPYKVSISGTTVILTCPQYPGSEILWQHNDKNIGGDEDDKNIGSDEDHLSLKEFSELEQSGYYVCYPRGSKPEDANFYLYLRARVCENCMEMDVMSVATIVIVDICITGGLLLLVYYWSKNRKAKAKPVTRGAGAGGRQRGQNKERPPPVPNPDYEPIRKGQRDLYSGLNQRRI
T1 sequence (P04234 22-171, chain 2 of 3): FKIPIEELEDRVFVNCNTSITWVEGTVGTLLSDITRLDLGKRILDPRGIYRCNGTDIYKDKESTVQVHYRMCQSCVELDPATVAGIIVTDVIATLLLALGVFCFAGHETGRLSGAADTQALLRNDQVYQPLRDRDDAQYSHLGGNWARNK
T1 sequence (P09693 23-182, chain 3 of 3): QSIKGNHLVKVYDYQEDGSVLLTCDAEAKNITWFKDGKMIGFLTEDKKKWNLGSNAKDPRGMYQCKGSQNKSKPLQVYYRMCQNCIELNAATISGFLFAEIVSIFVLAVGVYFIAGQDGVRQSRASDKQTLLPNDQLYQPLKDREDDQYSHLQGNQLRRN
Experiment: flow cytometry, Pan-T cells, 1 ug/mL

B1 and B2 are the same in “% Positive” value: 1.2% for the first, 1.2% for the second.

Going from B3 to B4, the “% Positive” value rises from 63.4% to 96.2%.

First: B5
Second: B6
The “% Positive” value of the first is higher: 99.5% for the first, 1.8% for the second.

With B7 the “% Positive” value was 99.8%.

First: B1
Second: B2
The gMFI of the first is lower: 1810 gMFI for the first, 2020 gMFI for the second.

First: B3
Second: B4
The gMFI of the first is lower: 8660 gMFI for the first, 24900 gMFI for the second.

First: B5
Second: B6
The gMFI of the first is higher: 240000 gMFI for the first, 1910 gMFI for the second.

In the case of B7, the gMFI is reported as 88200 gMFI.

Biological target: T1, human CD3 (TCR/CD3 complex on the cell …)
Experiment: flow cytometry, Pan-T cells, 10 ug/mL

Going from B1 to B2, the “% Positive” value rises from 1.5% to 1.6%.

First: B3
Second: B4
The “% Positive” value of the first is lower: 95.5% for the first, 99.5% for the second.

First: B5
Second: B6
The “% Positive” value of the first is higher: 99.5% for the first, 1.6% for the second.

In the case of B7, the “% Positive” value is reported as 99.7%.

Going from B1 to B2, the gMFI rises from 1830 gMFI to 2090 gMFI.

Compared with B3, B4 is higher in gMFI: 34200 gMFI for the first, 111000 gMFI for the second.

Going from B5 to B6, the gMFI falls from 348000 gMFI to 2150 gMFI.

B7 showed a gMFI of 166000 gMFI.

Biological target: T1, human CD3 (TCR/CD3 complex on the cell …)
Experiment: flow cytometry, Jurkat WT cells, 1 ug/mL

First: B1
Second: B2
The gMFI of the first is lower: 1660 gMFI for the first, 1700 gMFI for the second.

Going from B3 to B4, the gMFI rises from 7380 gMFI to 10100 gMFI.

Compared with B5, B6 is lower in gMFI: 30000 gMFI for the first, 1780 gMFI for the second.

Binder B7 has a gMFI of 22400 gMFI.

Biological target: T1, human CD3 (TCR/CD3 complex on the cell …)
Experiment: flow cytometry, Jurkat WT cells, 10 ug/mL

Compared with B1, B2 is higher in gMFI: 1670 gMFI for the first, 1790 gMFI for the second.

Going from B3 to B4, the gMFI rises from 12600 gMFI to 16000 gMFI.

Compared with B5, B6 is lower in gMFI: 39600 gMFI for the first, 1940 gMFI for the second.

With B7 the gMFI was 25700 gMFI.

Biological target: T1, human CD3 (TCR/CD3 complex on the cell …)
Experiment: flow cytometry, Jurkat WT gMFI over Jurkat KO gMFI, 1 ug/mL

First: B1
Second: B2
The “Jurkat WT/KO (Fold)” value of the first is higher: 0.9 fold for the first, 0.8 fold for the second.

Compared with B3, B4 is higher in “Jurkat WT/KO (Fold)” value: 3.6 fold for the first, 3.9 fold for the second.

First: B5
Second: B6
The “Jurkat WT/KO (Fold)” value of the first is higher: 9.3 fold for the first, 0.8 fold for the second.

With B7 the “Jurkat WT/KO (Fold)” value was 7.8 fold.

Biological target: T1, human CD3 (TCR/CD3 complex on the cell …)
Experiment: flow cytometry, Jurkat WT gMFI over Jurkat KO gMFI, 10 ug/mL

B1 and B2 are the same in “Jurkat WT/KO (Fold)” value: 1 fold for the first, 1 fold for the second.

Going from B3 to B4, the “Jurkat WT/KO (Fold)” value rises from 5.7 fold to 5.9 fold.

Compared with B5, B6 is lower in “Jurkat WT/KO (Fold)” value: 11.9 fold for the first, 0.9 fold for the second.

For B7, the “Jurkat WT/KO (Fold)” value was 9 fold.
